For one substance, Kd and kon results are on record in patent US11844843.

The target of the test is recombinant human TfR1 (transferrin receptor protein 1) (human) (UniProt P02786). Nature of the test: Carterra LSA SPR, 25 C; IgG captured, hTfR1 as analyte; 1:1 fit.
Sequence of recombinant human TfR1 (transferrin receptor protein 1) (human) (P02786 89-760 limits assumed): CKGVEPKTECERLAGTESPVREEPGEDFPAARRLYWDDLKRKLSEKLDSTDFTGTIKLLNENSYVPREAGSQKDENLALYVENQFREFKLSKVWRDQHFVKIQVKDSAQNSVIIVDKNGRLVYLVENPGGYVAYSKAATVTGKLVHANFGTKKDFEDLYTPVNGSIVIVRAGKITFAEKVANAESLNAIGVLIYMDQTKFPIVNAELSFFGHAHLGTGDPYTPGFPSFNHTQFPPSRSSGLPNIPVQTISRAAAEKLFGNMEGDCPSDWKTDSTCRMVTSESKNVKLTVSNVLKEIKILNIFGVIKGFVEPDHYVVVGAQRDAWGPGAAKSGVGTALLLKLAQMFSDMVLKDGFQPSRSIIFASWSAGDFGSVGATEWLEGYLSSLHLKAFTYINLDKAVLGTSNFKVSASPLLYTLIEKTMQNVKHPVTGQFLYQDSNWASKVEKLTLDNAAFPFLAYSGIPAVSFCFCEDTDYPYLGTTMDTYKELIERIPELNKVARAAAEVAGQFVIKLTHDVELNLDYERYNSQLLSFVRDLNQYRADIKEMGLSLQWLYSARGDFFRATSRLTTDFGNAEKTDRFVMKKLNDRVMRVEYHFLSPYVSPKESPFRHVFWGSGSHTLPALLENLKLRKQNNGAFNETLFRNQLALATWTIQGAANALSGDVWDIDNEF

As a reminder, the Kd is the equilibrium constant for the complex coming apart. The term kon denotes the rate constant with which the complex forms. As to OKT9 mIgG (control anti-TfR1 antibody), the equilibrium dissociation constant (Kd) worked out at 536 pM and the kon amounted to 774000 M⁻¹ s⁻¹.
